# Source: patent US8809529B2, “Imidazo[1,2-α]pyrazine derivatives” (Promega Corporation, priority 2010, dated 2014)
# Tests used:
# [1] = format: physicochemical, E. coli; conditions: for ½ life hours: 60° C., assay buffer 100 mM MES pH 6.0
# Experimental: Aliquots were removed at different time-points and placed on dry ice to freeze the samples. […] Luminescence was measured on a GLOMAX® luminometer (Promega Corp.).
# The thermal stability of the variants at 60° C. was examined as described above, except the assay buffer contained 100 mM MES pH 6.0 instead of HEPES.
# [2] = Stability of secreted OgLuc variants in saved media; format: physicochemical; conditions: secreted variant in media
# Experimental: To determine if the secretion signal sequence of OgLuc facilitates its secretion, the OgLuc variants 9B8, V2 and L27V were cloned into pF4Ag containing an N-terminal OgLuc secretion signal sequence. The variants were also cloned into vectors without the secretion signal sequence. CHO or HeLa cells were then plates at 100,000 cells/well in 1 mL F12 media with 10% FBS and 1× sodium pyruvate (CHO cells) or DMEM with 10% FBS and 1× sodium pyruvate (HeLa cells) into 12-well plates and incubated overnight at 37° C., 5% CO2.
# After the overnight incubation, the cells were transfected with 1 μg plasmid DNA containing 9B8, V2, or L27V with or without the secretion signal sequence using the TRANSIT®-LT1 transfection reagent (Minis Bio) and OPTI-MEM® media (Invitrogen). The cells were again incubated overnight at 37° C., 5% CO2.
# After the second overnight incubation, the media was removed and saved for analysis. […] To 10 μL of cell lysate or saved media from each sample, 50 μL assay buffer with 40 μM FBI-3939 was added, and luminescence measured as described above.
# To determine the stability of the secreted variants, 150 μL aliquots of the saved media from each sample was placed at 37° C. or 50° C. The aliquots were then removed at different time points ([…]), frozen on thy ice, and kept at −20° C. until assayed. To assay for stability, the media aliquots were thawed to room temperature, and 10 μL of each aliquot was mixed with assay buffer with PBI-3939 (pH 6.0) as described above. Luminescence was measured as above, and the half-life (t50) determined (Table 34).
# [3] = Luminescence of OgLuc variants expressed in NIH3T3 cells; format: cell-based; conditions: for Increase in Luminescence: NIH3T3: normalized to 9B8 opt
# Experimental: The PCR library in the pF4Ag-based non-fusion background was screened for additional variants with increased luminescence compared to 9B8 opt+K33N+170G (SEQ ID NOs: 68 and 69). Selected variants were then assayed in HEK293 and NIH3T3 cells. For each cell type, 15,000 cells were plated and grown overnight at 37° C. The next day, the cells were transfected as described in Example 25 with 10 ng pGL4.13 (Promega Corp.) as a transfection control and 100 ng of the OgLuc test DNA. The media was removed, and the cells were lysed with 100 μL of lysis buffer as described in Example 25 except the lysis buffer contained 100 mM MES pH 6.0 instead of HEPES, and luminescence measured using a GLOMAX® Luminometer.
# Based on the above data, further combination variants were designed and generated (see Table 10) in the context of the pF4Ag-based non-fusion vector background without the 170G. The variants were analyzed in E. coli, HEK293 and NIH3T3 cells as described above and compared to 9B8 opt+K33N. The variants were also examined for luminescence with native coelenterazine.
# The brightness of the variants expressed in HEK293 and NIH3T3 cells was measured as described previously. The luminescence of the variants was normalized to the luminescence generated by 9B8 opt (Table 27).
# The variants 9B8 opt+K33N+T39T+K43R+Y68D (“V2”; SEQ ID NOs: 92 and 93), 9B8 opt+K33N+L27V+K43R+Y68D (SEQ ID NOs: 339 and 340), 9B8 opt+K33N+L27V+T39T+K43R+S66N (SEQ ID NOs: 341 and 342), and 9B8 opt+K33N+L27V+T39T+K43R+Y68D (“L27V”; SEQ ID NOs: 88 and 89) were subcloned into the Id-OgLuc-HT7 sandwich background as described above and assayed in HEK293 and NIH3T3 cells as described above. The luminescence generated by the sandwiched variants were compared to the luminescence generated by the […] sandwich (SEQ ID NOs: 59 and 60) (Table 38). The L27V sandwich (SEQ ID NOs: 90 and 91) and V2 sandwich (SEQ ID NOs: 94 and 95) had at least 1.3× fold-increase in luminescence in HEK293 and NIH3T3 cells.
# The sandwich and non-sandwich versions of the variants V2, 9B8 opt+K33N+L27V+K43R+Y68D, 9B8 opt+K33N+L27V+T39T+K43R+S66N, and L27V were assayed in HEK293 and NIH3T3 cells as described in Example 37. The luminescence generated by the non-sandwiched variants was compared to the luminescence generated by the sandwiched variants (Table 39).
molecule,measurement,setting,value
"L27V: 9B8 opt+K33N variant with L27V, T39T, K43R, Y68D (protein) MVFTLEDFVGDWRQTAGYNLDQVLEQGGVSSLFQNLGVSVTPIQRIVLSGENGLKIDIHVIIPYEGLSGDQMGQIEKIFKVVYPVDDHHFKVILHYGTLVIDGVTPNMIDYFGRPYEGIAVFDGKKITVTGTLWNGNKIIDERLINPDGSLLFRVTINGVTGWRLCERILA",½ life hours,[1],21.7 h
same,½ life 37° C.,[2],17 days
same,½ life 50° C.,[2],11 h
same,Fold-Decrease in Luminescence in the Presence of Sandwich Background: NIH 3T3 cells,[3],18
same,Fold over 9B8 opt + K33N: NIH3T3,"[3]; luminescence, PBI-3939",0.7
same,Increase in Luminescence: NIH3T3,[3],1.6
same,Fold over Native Coelenterazine: NIH3T3,[3]; relative specificity for PBI-3939,85
9B8 opt: codon optimized version of the 9B8 variant (protein) MVFTLEDFVGDWRQTAGYNLDQVLEQGGLSSLFQKLGVSVTPIQKIVLSGENGLKIDIHVIIPYEGLSGYQMGQIEKIFKVVYPVDDHHFKVILHYGTLVIDGVTPNMIDYFGRPYEGIAVFDGKKITVTGTLWNGNKIIDERLINPDGSLLFRVTINGVTGWRLCERILA,RLU,[1]; luminescence at start of incubation (t=0),"23,283,252,000 RLU"
same,T1/2(60° C.),[1]; pH 7,5.7 h
"9B8: IV variant with Q18L, F68Y, L72Q, M75K; in Tables 12, 22, 23, 26, 27 “9B8” stands for 9B8 opt (protein) MVFTLEDFVGDWRQTAGYNLDQVLEQGGLSSLFQKLGVSVTPIQKIVLSGENGLKIDIHVIIPYEGLSGYQMGQIEKIFKVVYPVDDHHFKVILHYGTLVIDGVTPNMIDYFGRPYEGIAVFDGKKITVTGTLWNGNKIIDERLINPDGSLLFRVTINGVTGWRLCERILA",½ life hours,[1],5.1 h
same,½ life 37° C.,[2],8 days
same,½ life 50° C.,[2],3 h
same,Increase in Luminescence: NIH3T3,[3],1.0
